Reference: paper PMC10868440, “Structural characterization of the Sel1‐like repeat protein LceB from Legionella pneumophila” (Protein Science : A Publication of the Protein Society, 2024)
“And” between values parts separate entries of the source, which are not always exact repeats. Equal values may be shown once.

Key:
[1] = target: full-length 6His-LceB (Legionella pneumophila Philadelphia-1) (UniProt Q5ZVT4); test: mass photometry
mass photometry = target: the molecule itself; test: mass photometry

Molecule | stoichiometry N [1] | stoichiometry N (mass photometry)
full-length 6His-LceB (from UniProt Q5ZVT4 1-376) (natural protein) | 3 and 5 | –
6His-LceB (22-366) (domain or fragment, also called Lpg1356; truncated LceB crystallization construct; not shown: His6, N-terminal, kept) VGFAAFENGDYTTAYPHLMQAAKEGNEEAMYLLGRMYQYGYGVTTNYEEARNWYQKAADKNNALAQLSLGFMYDTGKGVSQDFTEAFKWYMKAAEQGNPIAQRNIGLMYATGDGVAASDDKAFNWFKKAAEQGYSKAQVNLGYQYMMGKGTPKDVKKAFEWYQKAAEQGDEKGEYSLGLLYTGQEGGIGADDKAAFYWFSQAANHGHVNAQTYLAYYYLKGYGVDADPVKAAYWYQSAAEKGQPEAQAQLGQLLLTGTGVDKDYQQAAYWFGKSAHQGNPIGQAKLGYMYLAGLGVNKSLVKAYAWLKIAAENKNEEAAKQLKSLEAKLTEPEKLEAEKMIKDLG | – | 2
LceB no HT (22-366) (domain or fragment, also called LceB no His-tag; digested LceB) VGFAAFENGDYTTAYPHLMQAAKEGNEEAMYLLGRMYQYGYGVTTNYEEARNWYQKAADKNNALAQLSLGFMYDTGKGVSQDFTEAFKWYMKAAEQGNPIAQRNIGLMYATGDGVAASDDKAFNWFKKAAEQGYSKAQVNLGYQYMMGKGTPKDVKKAFEWYQKAAEQGDEKGEYSLGLLYTGQEGGIGADDKAAFYWFSQAANHGHVNAQTYLAYYYLKGYGVDADPVKAAYWYQSAAEKGQPEAQAQLGQLLLTGTGVDKDYQQAAYWFGKSAHQGNPIGQAKLGYMYLAGLGVNKSLVKAYAWLKIAAENKNEEAAKQLKSLEAKLTEPEKLEAEKMIKDLG | – | 2
